Data on 30 molecules can be found in patent US20240199746A1 (published 2024).

Positions count from the first letter of the chain named.

Sequences and labels used below:
T1: Ax1 protein, extracellular domain (human, UniProt P30530 26-451)
T1 construct: extracellular domain; also called Axl; Ark
T1 sequence (looked up): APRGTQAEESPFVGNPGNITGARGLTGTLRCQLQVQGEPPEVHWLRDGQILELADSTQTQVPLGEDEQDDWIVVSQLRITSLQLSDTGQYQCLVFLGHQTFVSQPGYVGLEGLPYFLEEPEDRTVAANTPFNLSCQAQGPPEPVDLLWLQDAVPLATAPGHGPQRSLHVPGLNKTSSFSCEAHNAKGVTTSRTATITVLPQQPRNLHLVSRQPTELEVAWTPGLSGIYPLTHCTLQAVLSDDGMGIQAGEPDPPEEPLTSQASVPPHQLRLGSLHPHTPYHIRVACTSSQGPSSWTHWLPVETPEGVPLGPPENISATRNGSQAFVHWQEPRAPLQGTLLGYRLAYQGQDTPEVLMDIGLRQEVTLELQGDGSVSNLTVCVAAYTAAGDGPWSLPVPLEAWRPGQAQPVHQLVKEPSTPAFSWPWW

B1: HC-B102I (antibody, V domains shown)
VH: EVQLVQSGAEVKKPGATVKISCKVSGYSFTGHTMNWIRQPPGKGLEWIGLIKPSNGGTSYNQKFKGRVTISADKSISTAYLQWSSLKASDTAMYYCAHGHYISYFAMDYWGQGTLVTVSS
VL: DIQMTQSPSSLSASVGDRVTITCKASQDVSSAVAWYQQKPGQAPRLLIYWASTRHTGVPSRFSGSGSGTEFTLTISSLQPDDFATYYCQEHFSTPLTFGQGTKVEIK
notes: CPE single point mutant; printed B102, read as E102 (other rows print HC-E102x)
B2: HC-S059T (antibody, V domains shown)
VH: B1 VH with S59T, I102E
VL: B1 VL
notes: CPE single point mutant
B3: HC-Y104P (antibody, V domains shown)
VH: B1 VH with I102E, Y104P
VL: B1 VL
notes: CPE single point mutant
B4: LC-A051N (antibody, V domains shown)
VH: B1 VH with I102E
VL: B1 VL with A51N
notes: CPE single point mutant
B5: LC-A034D (antibody, V domains shown)
VH: B1 VH with I102E
VL: B1 VL with A34D
notes: CPE single point mutant
B6: HC-M107E (antibody, V domains shown)
VH: B1 VH with I102E, M107E
VL: B1 VL
notes: CPE single point mutant
B7: HC-T030A (antibody, V domains shown)
VH: B1 VH with T30A, I102E
VL: B1 VL
notes: CPE single point mutant
B8: HC-H100P (antibody, V domains shown)
VH: B1 VH with H100P, I102E
VL: B1 VL
notes: CPE single point mutant
B9: HC-E102M (antibody, V domains shown)
VH: B1 VH with I102M
VL: B1 VL
notes: CPE single point mutant
B10: HC-F105T (antibody, V domains shown)
VH: B1 VH with I102E, F105T
VL: B1 VL
notes: CPE single point mutant
B11: HC-S059I (antibody, V domains shown)
VH: B1 VH with S59I, I102E
VL: B1 VL
notes: CPE single point mutant
B12: HC-N035I (antibody, V domains shown)
VH: B1 VH with N35I, I102E
VL: B1 VL
notes: CPE single point mutant
B13: HC-E102Y (antibody, V domains shown)
VH: B1 VH with I102Y
VL: B1 VL
notes: CPE single point mutant
B14: HC-E102V (antibody, V domains shown)
VH: B1 VH with I102V
VL: B1 VL
notes: CPE single point mutant
B15: LC-A032L (antibody, V domains shown)
VH: B1 VH with I102E
VL: B1 VL with A32L
notes: CPE single point mutant
B16: HC-F105V (antibody, V domains shown)
VH: B1 VH with I102E, F105V
VL: B1 VL
notes: CPE single point mutant
B17: HC-P053N (antibody, V domains shown)
VH: B1 VH with P53N, I102E
VL: B1 VL
notes: CPE single point mutant
B18: LC-A032M (antibody, V domains shown)
VH: B1 VH with I102E
VL: B1 VL with A32M
notes: CPE single point mutant
B19: HC-F105N (antibody, V domains shown)
VH: B1 VH with I102E, F105N
VL: B1 VL
notes: CPE single point mutant
B20: HC-S103D (antibody, V domains shown)
VH: B1 VH with I102E, S103D
VL: B1 VL
notes: CPE single point mutant
B21: LC-A034Q (antibody, V domains shown)
VH: B1 VH with I102E
VL: B1 VL with A34Q
notes: CPE single point mutant
B22: HC-H100D (antibody, V domains shown)
VH: B1 VH with H100D, I102E
VL: B1 VL
notes: CPE single point mutant
B23: LC-A034N (antibody, V domains shown)
VH: B1 VH with I102E
VL: B1 VL with A34N
notes: CPE single point mutant
B24: HC-M107F (antibody, V domains shown)
VH: B1 VH with I102E, M107F
VL: B1 VL
notes: CPE single point mutant
B25: HC-T033I (antibody, V domains shown)
VH: B1 VH with T33I, I102E
VL: B1 VL
notes: CPE single point mutant
B26: HC-S103Q (antibody, V domains shown)
VH: B1 VH with I102E, S103Q
VL: B1 VL
notes: CPE single point mutant
B27: HC-F105S (antibody, V domains shown)
VH: B1 VH with I102E, F105S
VL: B1 VL
notes: CPE single point mutant
B28: HC-H100R (antibody, V domains shown)
VH: B1 VH with H100R, I102E
VL: B1 VL
notes: CPE single point mutant
B29: HC-Y101N (antibody, V domains shown)
VH: B1 VH with Y101N, I102E
VL: B1 VL
notes: CPE single point mutant
B30: LC-A051I (antibody, V domains shown)
VH: B1 VH with I102E
VL: B1 VL with A51I
notes: CPE single point mutant

The first assay addresses T1, Ax1 protein, extracellular domain. Kind of assay: ELISA, mutant diluted 1:9. The text has this:
(§1) The DNA encoding the wild-type antibody was evolved to generate a mutant antibody library using Comprehensive Positional Evolution (CPE), which each position in the template antibody is randomized one at a time. Each mutant antibody in the library has only one single point mutation. The mutant antibodies in the library were generated by simultaneously screening for selective binding affinity to Ax1 at pH 6.0 over pH 7.4 by ELISA. Two mutant antibody dilutions were used: 1:3 and 1:9 dilutions.
Turning to B1, the “Affinity ELISA CPE mutant ratio (1:9, pH 6.0/7.4)” value is 1.7.
Still for that read-out and setting: for B2 the value was 1.93.
On the same count and under the same terms, in the case of B3 it was 2.42; in that of B4, 2.2; in that of B5, 2.6.
On the same count and under the same terms, in the case of B6 it was 1.36; in that of B7, 1.76; in that of B8, 1.18.
B9: the “Affinity ELISA CPE mutant ratio (1:9, pH 6.0/7.4)” value was found to be 2.36.
Same read-out and setting: in the case of B10 it was 4.02.
Same read-out and setting: for B11 the value was 2.06.
Still for that read-out and setting: in the case of B12 it was 1.12; in that of B13, 1.99.
As to B14, the “Affinity ELISA CPE mutant ratio (1:9, pH 6.0/7.4)” value turned out to be 2.51.
The same measure, in the same setting: in the case of B15 it was 2.27.
Still for that read-out and setting: for B16 the value was 2.8; for B17, 1.89.
Same read-out and setting: for B18 the value was 2.92; for B19, 2.64; for B20, 2.23.
Consider B21, for which the “Affinity ELISA CPE mutant ratio (1:9, pH 6.0/7.4)” value was determined as 1.41.
Still for that read-out and setting: in the case of B22 it was 3.09; in that of B23, 2.4.
On the same count and under the same terms, for B24 the value was 1.09; for B25, 1.
For B26, the “Affinity ELISA CPE mutant ratio (1:9, pH 6.0/7.4)” value came to 2.26.
Same read-out and setting: in the case of B27 it was 4.54; in that of B28, 2.51.
In the case of B29, the “Affinity ELISA CPE mutant ratio (1:9, pH 6.0/7.4)” value was found to be 2.91.
Consider B30, for which the “Affinity ELISA CPE mutant ratio (1:9, pH 6.0/7.4)” value worked out at 2.14.

A further assay shares this target. Kind of assay: ELISA, mutant diluted 1:3.
Source text: as §1
In general terms: ELISA stands for enzyme-linked immunosorbent assay.
For B1, the “Affinity ELISA CPE mutant ratio (1:3, pH 6.0/7.4)” value was 2.02.
On the same count and under the same terms, in the case of B2 it was 1.02; in that of B3, 2.54.
Still for that read-out and setting: for B4 the value was 1.41; for B5, 3.
Take B6: the “Affinity ELISA CPE mutant ratio (1:3, pH 6.0/7.4)” value amounted to 2.16.
B7: the “Affinity ELISA CPE mutant ratio (1:3, pH 6.0/7.4)” value is 1.29.
On to B8, for which the “Affinity ELISA CPE mutant ratio (1:3, pH 6.0/7.4)” value stood at 2.58.
On the same count and under the same terms, for B9 the value was 2.08.
Regarding B10, the “Affinity ELISA CPE mutant ratio (1:3, pH 6.0/7.4)” value came to 3.46.
Still for that read-out and setting: for B11 the value was 30.5; for B12, 2.81; for B13, 2.61.
The same measure, in the same setting: for B14 the value was 1.93; for B15, 1.9; for B16, 2.43.
Still for that read-out and setting: for B17 the value was 1.4; for B18, 4.76.
On to B19, for which the “Affinity ELISA CPE mutant ratio (1:3, pH 6.0/7.4)” value worked out at 2.36.
On the same count and under the same terms, for B20 the value was 4.24.
Still for that read-out and setting: for B21 the value was 2; for B22, 2.42; for B23, 2.63.
Still for that read-out and setting: in the case of B24 it was 20.6; in that of B25, 1.59; in that of B26, 0.912.
For B27, the “Affinity ELISA CPE mutant ratio (1:3, pH 6.0/7.4)” value stood at 3.9.
With B28, the “Affinity ELISA CPE mutant ratio (1:3, pH 6.0/7.4)” value was found to be 1.88.
The same measure, in the same setting: for B29 the value was 2.17; for B30, 2.24.
